The text below walks through data of paper PMC12293987, “Dissecting the tRNA Fragment tRF3E–Nucleolin Interaction: Implications in Breast Cancer”.

A value given as a limit tells only on which side of the number the result lay.

The target in data set [1] is T1, Nucleolin (NCL) (UniProt P19338 1-710). As to the kind of experiment: EMSA; printed as KD >= 1500 nM; still interacts with very low affinity; 20 mM Tris-HCl pH 7.5, 50 mM KCl, 10% glycerol, 0.3 mg/mL BSA, 0.02% Nonidet P-40, 15 uL, 2 pmol 32P-RNA, 20 °C 30 min (competition: further 30 min); native 7%. The following applies: protein: recombinant; tags: His; label: 32P; predicted fold, CGA in bubble.

Data set [2] deals with T1, Nucleolin (NCL). As to the kind of experiment: EMSA; complex I, NCL in excess; Kd taken as protein concentration retarding 50% of probe; 20 mM Tris-HCl pH 7.5, 50 mM KCl, 10% glycerol, 0.3 mg/mL BSA, 0.02% Nonidet P-40, 15 uL, 2 pmol 32P-RNA, 20 °C 30 min (competition: further 30 min); native 7%. The following applies: protein: recombinant, tags: His. A general note: Mobility shift assays separate free from complexed probe on a gel.

Data set [3] deals with T1, Nucleolin (NCL). As to the kind of experiment: EMSA; complete loss of retardation; 20 mM Tris-HCl pH 7.5, 50 mM KCl, 10% glycerol, 0.3 mg/mL BSA, 0.02% Nonidet P-40, 15 uL, 2 pmol 32P-RNA, 20 °C 30 min (competition: further 30 min); native 7%. The following applies: protein: recombinant; tags: His; label: 32P; predicted fold, CGA at junction of double-stranded and unstructured region.

A word on the Kd: it is a measure of binding affinity in units of concentration.

T1 sequence (P19338 whole entry): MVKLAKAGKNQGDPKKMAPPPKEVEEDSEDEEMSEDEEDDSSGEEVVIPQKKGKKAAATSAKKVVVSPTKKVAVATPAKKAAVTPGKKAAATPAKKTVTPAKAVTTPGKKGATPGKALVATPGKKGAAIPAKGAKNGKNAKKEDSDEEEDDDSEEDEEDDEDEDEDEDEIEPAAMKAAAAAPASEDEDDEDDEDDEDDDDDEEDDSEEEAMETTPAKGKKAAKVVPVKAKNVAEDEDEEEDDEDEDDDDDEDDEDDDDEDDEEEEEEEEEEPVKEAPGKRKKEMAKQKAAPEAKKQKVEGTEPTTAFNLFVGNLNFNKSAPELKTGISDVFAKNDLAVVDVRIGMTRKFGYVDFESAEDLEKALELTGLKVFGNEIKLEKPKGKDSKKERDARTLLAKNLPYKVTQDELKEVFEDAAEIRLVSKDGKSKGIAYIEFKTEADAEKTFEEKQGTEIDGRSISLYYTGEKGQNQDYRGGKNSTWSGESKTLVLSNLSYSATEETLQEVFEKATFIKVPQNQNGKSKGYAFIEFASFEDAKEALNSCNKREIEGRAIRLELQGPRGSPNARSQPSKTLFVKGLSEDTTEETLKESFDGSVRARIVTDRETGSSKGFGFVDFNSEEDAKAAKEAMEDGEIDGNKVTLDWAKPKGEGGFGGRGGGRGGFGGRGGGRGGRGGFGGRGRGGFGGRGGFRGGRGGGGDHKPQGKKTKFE

Regarding AGGCGGAAAUGGUUCGACUAAAUGUGUGGGAA (structured_RNA) [D2M], the Kd with Nucleolin (NCL) [1] is greater than 1500 nM.

As for AGGCGGCCCGGGUUCGACUCCCGGUGUGGGAA (structured_RNA) [wt tRF3E], the Kd with Nucleolin (NCL) [2] (hairpin (predicted stems, CGA 15-17 in loop)) was roughly 280 nM.

As to AGGCGGCCCGGGUUCGACUAAAUGUGUGGGAA (structured_RNA) [M19-24], the Kd with Nucleolin (NCL) [2] (hairpin (predicted, CGA 15-17 in loop)) was roughly 280 nM.

AGGCGGAAAUGGUUCGACUCCCGGUGUGGGAA (structured_RNA) [M6-11]: the binding result in the data set with Nucleolin (NCL) [3] is reported as “no binding”.
